Results published in publication PMC7771244.

How the values were obtained:
[1] = target: 5FW-BPTF (bromodomain of the bromodomain- and PHD finger-containing transcription factor, labelled with 5-fluorotryptophan) (human); test: NMR titration
[2] = target: 5FW-CECR2 (bromodomain of CECR2, labelled with 5-fluorotryptophan) (human); test: NMR titration
[3] = target: 5FW-labeled BRD4(2) (second bromodomain of BRD4) (human) (UniProt O60885); test: NMR titration
[4] = target: 5FW-labeled BRD2(2) (second bromodomain of BRD2) (human); test: NMR titration
[5] = target: His9-tagged BPTF bromodomain (human); test: AlphaScreen or HTRF
[6] = target: GST-BPTF (glutathione S-transferase-tagged BPTF, not labeled with fluorine) (human); test: SPR

| Substance | Kd [1] [µM] | other results |
| --- | --- | --- |
| H2A.Z I K4ac,K13ac N-terminal tail peptide | 780 |  |
| H2A.Z I K7ac,K13ac N-terminal tail peptide | 520 | Kd [2]: 130 µM; fold higher affinity than for H2A.Z II K7ac,K13ac [3]: 2 fold; Kd [4]: 680 µM; fold higher affinity than for H2A.Z II K7ac,K13ac [4]: 2 fold |
| H2A.Z I K11ac,K13ac N-terminal tail peptide | 1440 |  |
| H2A.Z II K4ac,K7ac N-terminal tail peptide | 660 |  |
| H2A.Z II K4ac,K11ac N-terminal tail peptide | 760 |  |
| H2A.Z II K7ac,K11ac N-terminal tail peptide | 780 |  |
| H2A.Z II K7ac,K13ac N-terminal tail peptide | 310 | IC50 [5]: 830 µM; Kd [6]: 195 µM |

The next lines start with results.

| Kd [1] [µM] | Substance | other results |
| --- | --- | --- |
| 630 | H2A.Z I K4ac,K15ac N-terminal tail peptide |  |
| 790 | H2A.Z II K4ac,K13ac N-terminal tail peptide |  |
| 430 | H2A.Z II K4ac,K15ac N-terminal tail peptide |  |
| 790 | H2A.Z II K11ac,K13ac N-terminal tail peptide |  |
